Experimental data: the supplement of paper PMC10567573

B1: KRT18 (parent)
chain: RVRSLETENRRLESKIREHLEKKG
B2: PKD2L1 (parent)
chain: VFIFYYVVEEILELHIHRLRYLSS

Variants of: B1
Assay: protein stability index of a GFP-peptide fusion (GPS, HEK-293T) (PSI 1-6); higher = more stable
Details: c terminus: a fixed tail appended
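Also: lentivirally expressed fusions sorted by FACS into six bins by GFP to DsRed ratio, PSI derived from sequencing read proportions per bin multiplied by bin number.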

Protein stability index of substitutions, site by site:
H19: F 4 | Q 5.04 | P 5.53 | C 3.82 | I 4.03 | N 4.78 | G 5.48 | A 4.46 | E 5.26 | V 4.49 | S 4.79 | T 5.01 | D 5.22 | W 2.25
E21: V 3.93 | R 3.99 | F 3.67 | N 4.11 | C 4.28 | W 3.32 | L 3.19 | M 4.15 | S 4.36 | H 4.43 | K 3.75 | Q 3.74 | I 3.9 | G 4.62 | A 4.21 | D 4.98 | T 4.2
R17: F 4.55 | A 3.79 | M 4.53 | G 5.38 | S 5.14 | K 4.39 | P 4.84 | C 5.24 | V 4.96 | H 5.06 | Y 4.92 | T 5 | I 4.37 | Q 4.54 | D 5.49 | L 4.22 | N 4.25
K23: V 4.14 | F 3.76 | N 4.78 | Q 4.32 | H 3.96 | A 4.56 | L 3.87 | G 4.75 | T 4.22 | I 3.2 | C 3.86 | S 4.52 | D 5.45
S14: L 4.59 | W 3.98 | Q 4.99 | T 4.47 | G 4.96 | E 4.78 | V 4.16 | I 4.38 | P 4.86 | Y 4.24 | N 3.68 | K 4.19 | C 3.84 | H 4.92
I16: L 4.32 | Y 4.63 | M 5.17 | V 4.37 | P 5.28 | C 4.79 | N 5.56 | G 5.45 | E 3.79 | Q 5.09 | W 4.96 | S 5.16 | T 4.29 | D 5.71
K15: E 5.16 | M 4.02 | C 4.06 | D 3.69 | Y 4.7 | S 5.16 | R 4.67 | Q 4.56 | T 4.76 | W 3.1 | A 4.53 | P 5.23 | I 4.41 | N 5.24 | H 3.6 | L 3.88 | F 3.04
L20: G 4.97 | K 4.96 | F 4.59 | N 4.78 | I 4.79 | E 5.7 | M 5.12 | H 5.35 | A 5.1 | W 3.95 | S 5.44 | P 5.58 | T 4.99 | V 4.94 | R 5.23
G24: D 4.87 | R 3.81 | N 4.61 | P 4.13 | I 3.83 | F 3.56 | M 3.73 | H 4.48 | W 4.04 | L 4.03 | Q 4.14 | V 4.01 | K 4.57 | C 3.69 | Y 3.92
K22: Q 4.89 | L 4.12 | Y 4.08 | A 3.65 | S 4.05 | V 4.52 | W 3.02 | R 4.21 | C 4.61 | G 4.06 | M 3.73 | F 4.16 | T 4.45 | E 4.86 | P 4.82 | N 4.09 | I 3.85
E18: M 3.94 | I 4.29 | H 3.99 | V 3.88 | F 3.22 | A 4.46 | D 4.53 | Y 4.07 | W 4.51 | S 4.55 | C 3.81 | T 4.25 | K 3.95 | G 4.91 | N 4.52 | R 3.99 | Q 3.75 | P 4.88

Variants of: B2
Assay: as above
Details: c terminus: a fixed tail appended

Protein stability index, by site and new letter:
I11: P 1.89 | T 2.64 | E 3.87 | V 3.46 | Q 3.96 | S 3.09 | Y 2.68 | G 2.73 | C 4.54 | H 1.24 | N 3.75 | K 2.51 | F 3.73 | M 2.46 | D 2.57
V8: N 2.16 | M 3.67 | H 2.51 | L 2.74 | W 2.57 | Q 1.9 | D 1.41 | G 4.19 | T 1.93 | I 3.22 | F 3.06
Y5: W 2.24 | E 2.14 | G 1.31 | P 1.66 | S 2.86 | T 2.27 | K 3.67 | N 2.63 | M 2.79 | H 3.91 | D 3.1 | F 2.11
V1: G 3 | W 2.35 | C 1.97 | S 1.97 | L 2.15 | F 1.49 | Y 2.76 | N 2.89 | P 2.44 | K 2.63 | R 2.23 | H 2.21
E9: I 3.16 | D 3.91 | C 1.88 | G 1.71 | N 2.21 | W 4.55 | K 3.5 | P 2.49 | Q 2.61 | R 4 | Y 1.67 | S 1.63
Y6: H 2.85 | D 2.42 | E 1.79 | P 1.54 | R 2.78 | L 3.99 | T 3.44 | I 2.85 | K 2.12 | N 2.01 | S 4.37 | W 3.85 | A 1.41 | F 1.65 | M 2.17
E10: D 2.75 | N 2.86 | I 2.56 | T 1.62 | A 3.28 | W 2.69 | C 1.36 | R 2.41 | H 2.68 | P 2.76 | L 2.35
L12: A 2.33 | H 3.78 | N 2.41 | C 2.92 | K 2.59 | Q 3.48 | F 3.21 | I 2.21 | P 1.95 | D 2.63 | T 3.03 | R 2.27 | W 2.15 | G 1.89 | Y 2.89 | E 2.76 | M 2.73
F2: Y 3.06 | A 1.52 | H 1.63 | G 3.34 | N 3.7 | I 3.92 | E 1.5 | L 2.11 | K 2.56 | S 2.65 | R 3.23 | M 4.81 | P 2 | T 3.77 | Q 3.67
F4: I 1.48 | Y 2.36 | S 2.7 | K 2.57 | N 2.21 | A 4 | W 1.29 | H 2.09 | V 3.48 | G 3.56 | Q 2.99 | M 2.56
V7: I 2.11 | Y 1.75 | D 3.12 | N 2.13 | K 3.16 | W 2.54 | G 2.25 | Q 3.24 | S 4.39 | H 3.16 | C 3.58 | A 4.67 | P 2.85 | F 1.93
E13: C 3.03 | D 2.04 | F 3.37
I3: L 2.25 | Y 3.43 | E 4 | D 3.59 | F 2.89 | T 1.54 | G 2.35 | P 3.06 | R 3.57 | H 1.62 | S 2.73 | A 1.69 | N 3.08 | M 3.13
